B1: MNAT1 (parent)
chain: LEEALYEYQPLQIETYGPHVPELE
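Note: lentivirally expressed fusions sorted by FACS into six bins by GFP to DsRed ratio, PSI derived from sequencing read proportions per bin multiplied by bin number.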

This data set covers variants of B1. Put plainly: protein stability index of a GFP-peptide fusion (GPS, HEK-293T) (PSI 1-6); higher = more stable. The note with it: c terminus: a fixed tail appended.
Turning to LEEALYEYQPLQIETGGPHVPELE, the protein stability index stood at 4.52.
In the case of LEEALYEYQPLQIETPGPHVPELE, the protein stability index was found to be 4.94.
For the variant LEEALYEYQPLQIETIGPHVPELE, the protein stability index was determined as 3.61.
For LEEALYEYQPLQIETSGPHVPELE, the protein stability index is 4.27.
Regarding LEEALYEYQPLQIETTGPHVPELE, the protein stability index worked out at 4.09.
For LEEALYEYQPLQIETKGPHVPELE, the protein stability index was 4.34.
With LEEALYEYQPLQIETMGPHVPELE, the protein stability index stood at 3.79.
Under LEEALYEYQPLQIETLGPHVPELE stands 4.15; under LEEALYEYQPLQIETHGPHVPELE, 3.15; under LEEALYEYQPLQIETVGPHVPELE, 3.19.
As for LEEALYEYQPLQIETQGPHVPELE, the protein stability index came to 4.33.
LEEALYEYQPLQIETWGPHVPELE: the protein stability index is 2.49.
Consider LEEALYEYQPLQIETRGPHVPELE, for which the protein stability index came out at 3.19.
Take LEEALYEYQPLQIETNGPHVPELE: the protein stability index came to 4.7.
Consider LEEALYEYQPLQIETYGVHVPELE, for which the protein stability index is 2.39.
Turning to LEEALYEYQPLQIETYGRHVPELE, the protein stability index turned out to be 3.78.
With LEEALYEYQPLQIETYGAHVPELE, the protein stability index came out at 2.74.
For the variant LEEALYEYQPLQIETYGCHVPELE, the protein stability index came out at 1.91.
Regarding LEEALYEYQPLQIETYGFHVPELE, the protein stability index was determined as 2.17.
In the case of LEEALYEYQPLQIETYGWHVPELE, the protein stability index was determined as 1.18.
On to LEEALYEYQPLQIETYGDHVPELE, for which the protein stability index is 2.8.
Under LEEALYEYQPLQIETYGMHVPELE stands 2.01.
Under LEEALYEYQPLQIETYGGHVPELE stands 2.96.
On to LEEALYEYQPLQIETYGTHVPELE, for which the protein stability index turned out to be 3.02.
For LEEALYEYQPLQIETYGQHVPELE, the protein stability index amounted to 3.3.
With LEEALYEYQPLQIETYGNHVPELE, the protein stability index stood at 3.31.
For the variant LEEALYEYQPLQIETYGLHVPELE, the protein stability index was 2.16.
For LEEALYEYQPLQIETYGKHVPELE, the protein stability index worked out at 4.11.
Take LEEALYEYQPLQIETYGHHVPELE: the protein stability index is 2.81.
Take LEEALYEYQPLQIETYGYHVPELE: the protein stability index is 2.97.
LEEALYEYQPLQIETYGEHVPELE: the protein stability index was found to be 2.15.
In the case of LEEALYEYQPLQIETYGSHVPELE, the protein stability index was 2.6.
Take LEEALYEYQPLQIETYGIHVPELE: the protein stability index was 2.04.
With LEEALYEYQPLQIETYGPHVCELE, the protein stability index was 3.78.
Take LEEALYEYQPLQIETYGPHVAELE: the protein stability index amounted to 2.92.
As to LEEALYEYQPLQIETYGPHVFELE, the protein stability index was determined as 1.44.
Turning to LEEALYEYQPLQIETYGPHVEELE, the protein stability index amounted to 3.67.
Consider LEEALYEYQPLQIETYGPHVDELE, for which the protein stability index is 3.3.
On to LEEALYEYQPLQIETYSPHVPELE, for which the protein stability index is 2.27.
For LEEALYEYQPLQIETYKPHVPELE, the protein stability index was determined as 2.88.
Consider LEEALYEYQPLQIETYCPHVPELE, for which the protein stability index came to 1.98.
Take LEEALYEYQPLQIETYYPHVPELE: the protein stability index came out at 1.59.
LEEALYEYQPLQIETYEPHVPELE: the protein stability index came out at 3.14.
For the variant LEEALYEYQPLQIETYHPHVPELE, the protein stability index was found to be 3.14.
With LEEALYEYQPLQIETYDPHVPELE, the protein stability index was determined as 2.21.
On to LEEALYEYQPLQIETYFPHVPELE, for which the protein stability index is 2.35.
Under LEEALYEYQPLQIETYAPHVPELE stands 2.35; under LEEALYEYQPLQIETYIPHVPELE, 2.13.
Regarding LEEALYEYQPLQIETYWPHVPELE, the protein stability index turned out to be 1.74.
For the variant LEEALYEYQPLQIETYNPHVPELE, the protein stability index amounted to 2.99.
As to LEEALYEYQPLQIETYPPHVPELE, the protein stability index is 2.69.
As to LEEALYEYQPLQIETYVPHVPELE, the protein stability index amounted to 2.12.
Under LEEALYEYQPLQIETYMPHVPELE stands 1.75; under LEEALYEYQPLQIETYTPHVPELE, 2.5.
With LEEALYEYQPLQIETYQPHVPELE, the protein stability index was 2.53.
Next, LEEALYEYQPLQIETYLPHVPELE: 1.85; LEEALYEYQPLQIETYGPHDPELE: 2.36.
For the variant LEEALYEYQPLQIETYGPHSPELE, the protein stability index came to 2.57.
In the case of LEEALYEYQPLQIETYGPHNPELE, the protein stability index is 3.23.
Next, LEEALYEYQPLQIETYGPHFPELE: 2.36; LEEALYEYQPLQIETYGPHMPELE: 2.57.
With LEEALYEYQPLQIETYGPHPPELE, the protein stability index turned out to be 2.21.
As to LEEALYEYQPLQIETYGPHIPELE, the protein stability index was 2.4.
As to LEEALYEYQPLQIETYGPHYPELE, the protein stability index came to 2.78.
Next, LEEALYEYQPLQIETYGPHKPELE: 3.23.
For LEEALYEYQPLQIETYGPHCPELE, the protein stability index came to 2.15.
Under LEEALYEYQPLQIETYGPHRPELE stands 2.58; under LEEALYEYQPLQIETYGPHGPELE, 3.45; under LEEALYEYQPLQIETYGPHWPELE, 2.17.
With LEEALYEYQPLQIETYGPHAPELE, the protein stability index is 3.26.
For the variant LEEALYEYQPLQIETYGPHEPELE, the protein stability index came out at 1.94.
Turning to LEEALYEYQPLQIETYGPHHPELE, the protein stability index stood at 2.1.
Take LEEALYEYQPLQIETYGPHLPELE: the protein stability index turned out to be 2.49.
Regarding LEEALYEYQPLQIETYGPHTPELE, the protein stability index came to 2.38.
Next, LEEALYEYQPLQIETYGPHQPELE: 2.92; LEEALYEYQPLQIETYGPMVPELE: 2.09; LEEALYEYQPLQIETYGPSVPELE: 2.69.
For LEEALYEYQPLQIETYGPIVPELE, the protein stability index was found to be 1.57.
Regarding LEEALYEYQPLQIETYGPRVPELE, the protein stability index turned out to be 3.99.
Under LEEALYEYQPLQIETYGPLVPELE stands 2.33; under LEEALYEYQPLQIETYGPVVPELE, 2.21.
For LEEALYEYQPLQIETYGPCVPELE, the protein stability index was 3.3.
On to LEEALYEYQPLQIETYGPQVPELE, for which the protein stability index amounted to 2.37.
As to LEEALYEYQPLQIETYGPNVPELE, the protein stability index worked out at 2.82.
LEEALYEYQPLQIETYGPYVPELE: the protein stability index is 2.62.
Regarding LEEALYEYQPLQIETYGPAVPELE, the protein stability index amounted to 2.89.
LEEALYEYQPLQIETYGPPVPELE: the protein stability index came out at 2.01.
On to LEEALYEYQPLQIETYGPWVPELE, for which the protein stability index turned out to be 1.5.
For LEEALYEYQPLQIETYGPEVPELE, the protein stability index is 3.27.
Next, LEEALYEYQPLQIETYGPTVPELE: 3.17.
LEEALYEYQPLQIETYGPDVPELE: the protein stability index was determined as 2.76.
For LEEALYEYQPLQIETYGPGVPELE, the protein stability index was 2.26.
For the variant LEEALYEYQPLQIETYGPFVPELE, the protein stability index came out at 2.11.
Next, LEEALYEYQPLQIETYGPKVPELE: 2.8.

The record behind these values is the supplement of paper PMC10567573.
